Laboratory results published in patent publication US20250034594A1, “RNA-GUIDED GENOME RECOMBINEERING AT KILOBASE SCALE” (THE BOARD OF TRUSTEES OF THE LELAND STANFORD JUNIOR …, priority 2021, published 2025).

Tests used:
Type in all cases: cell-based
[1] = system: gene editing with Cas9 and dCas9; test: Screen of 322 new SSAP proteins, activity across all experiments (Cas9 and dCas9, Table 5); parameters: scale not given here
Method in brief: (§1)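 Sequence-mined SSAPs (n=322), synthesized; editing activity screened with Cas9 or dCas9.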

[2] = system: gene editing with Cas9; test: Screen of 322 new SSAP proteins, gene editing activity with Cas9 (Table 5); parameters: Cas9 with SSAP activity: scale not given here
Method in brief: as §1

[3] = system: gene editing with dCas9; test: Screen of 322 new SSAP proteins, gene editing activity with dCas9 (Table 5); parameters: dCas9 with SSAP activity: scale not given here
Method in brief: as §1

Molecule	Activity across all experiments [1]	Cas9 with SSAP activity [2]	Cas9 with SSAP activity (normalized) [2]	dCas9 with SSAP activity [3]	dCas9 with SSAP activity (normalized) [3]
SSAP_27: SEQ ID NO: 196 (protein) SNNQLSTQQAKRDIAIDTSVWTFQDVKRYFDPQNLLTEKQVGQALSLIKGRNLNPLANEVYIVAYKKKTGGTEFSLIVSKEAFLKRAAQNPNYEGFEAGVVTVDTDGVMHERKGALMLPGDTLVGGWARVYRKNFKVPVEIFVSREEYDKKQSTWNAMPATMIRKTALVNALREAFPEDLGNMYTEDDGGETFDRIKQAEPVESREDVMARKMAQIEQMKQEQAQRQIDTSYPTDDVIDPDDEPAQGELLEDLEY	−3.661	−2.642	−0.956	−4.680	−0.675
SSAP_74: SEQ ID NO: 243 (protein) SNPPLAQADLQKTQGTEVKTKTKDQQLIHFINQPSMKAQLAAALPRHMTPDRMIRIVTTEIRKTPALANCDMQSFIGAVVQCSQLGLEPGNALGHAYLLPFGNGKAKSGQSNVQLIIGYRGMIDLARRSNQIISISARTVRQGDSFHFEYGLNENLTHVPGENEDSPITHVYAVARLKDGGVQFEVMTHNQIEKVRASSKAGQNGPWVSHWEEMAKKTVIRRLFKYLPVSIEMQKAVILDEKAEANVDQENASVFEGEFEEVSQSA	0.781	0.893	0.751	0.668	0.984
SSAP_170: SEQ ID NO: 339; Dorea longicatena (protein, listed as Dorea longicatena) TVGKTDEIKQELARKVENTKAGTKLKKSMSIADMIKVMEPQIKKALPEVITPERFTRMALSALNTTPKLNECTPMSFLAALMNAAQLGLEPNTPLGQAFLIPYNNKGKMECQFQLGYKGLIDLSYRNPNMQIITAHTVYENDEFEYELGLNPCLDHRPTLGERGEIRLFYGLFKLTNGGFGFEVMSKTAMDDFAKEYSKAFDSSFSPWRTNYESMALKTIIKKALKYAPLKSEFRNALSTDETIKNEIGADMSEINSENIFDTVYQEECA	−1.184	2.314	1.852	−4.682	−0.968
SSAP_176: SEQ ID NO: 345; Absicoccus porci (protein, listed as Absicoccus porci) TTTNQQGMITKKANNSVAKKTNRTMKDYITMYQGEIAKALPSVMTPERFVRIATTAVTNTPKLASCTPQSFIGALLNAAQLGLEPNTPLGQAYLIPYGNQCQFQIGYLGMVELAQRAGTNVDAHVVYANDEFDYSLGLHPDIKHVPAMKDRGEAIAYYAVWHNGENFGFEVMSREDVEKHMKKYSKTYSNGPWKTEFDEMAKKTVLKRALKYAPKKTDLARAVMQDETIKQFNPKADNDMADAKNDFFDVEYDEVDENTDPVTGEVK	−1.789	1.105	2.418	−4.682	−0.680
SSAP_258: SEQ ID NO: 427; Clostridium thermopalmarium (protein, listed as Clostridium thermopalmarium) ATVNELKNEIATKKETGVGSAGNTIKGLINSPAIKKRFEDVLNKKAPQYMSSIVNLVNGDTNLKKCDQMSVIASCMVAATLDLPIDKNLGYAWIVPYGNRAQFQLGYKGYVQLALRTGQYKAINVIEVHEGELIEWNPLTEELKIDFSQKKSDAIIGYAGYFELLNGFKKSTYWTKEQIIRHKNKFSKSDFGWKKDFDAMAKKTVLRNMLSKWGILSIEMQNAYTADQATIRPEAVETGDIKGNVDYVEADFEENYEGTPFEEVEEGGVNE	−4.014	−3.280	−0.553	−4.748	−0.956
SSAP_227: SEQ ID NO: 396; Streptococcus parauberis (protein, listed as Streptococcus parauberis) ANQLTVVNTLQSDAVKEKFEAVMGEKANGFVSSVLSVVTNNNILSKADFNSVYTSAMKAAVLDLPVEPSLGMAHIVPYKGKAQFQIGYKGLIQLALRSGQVVGLNAGKVYEGQFKSFNALTEKLDIVDIYNPKKDEPIVGYFAYMKLSNGFEKTTYWTKEQVEEHGKKYSQSYDSKFSPWQTNFDAMARKTVLKSILSTYAPLTIEMQNANDFDNGKNTGIEPLEVKDVTPETDNESLLTDLLEDEPSVNTETGEIIEDTELDLDYGQINAK	−2.575	−0.330	−0.310	−4.819	−0.774
SSAP_259: SEQ ID NO: 428; Virgibacillus chiguensis (protein, listed as Virgibacillus chiguensis) ATNSSLKNQIANKGNGNQNTPQGYTVKQLMSASSVKNRFEETLGKKAPQFMASVINLVNGDTNLQKCDQMSVVSSAMVAAALDLPIDKNLGYAWVVPYGNKATFQMGYKGYIQLALRTGQYKNINVIEVYEGEVKSFNRLTEEIELEFEGKESDKVIGYVGYFELINGFRKTVYWSKDEIERHKKRFSKTGFAWKDNYDAMAKKTVIRNMLNKWGILSIDMQTAVTTDGNAVTQDFEQEDSGLVIDAEFSEVNEASEGQQEIKFENADA	−3.807	−2.773	−0.529	−4.841	−1.414
SSAP_62: SEQ ID NO: 231 (protein) SEISKAVATQQNPLAVVARYKRELGTVLPTVLRQDPDRWLMAAENAARKNPDIMAVTKADQGASYMRALVECARLGHEPGSKDFHFIKRGNAISGEESYRGIIKRVLNSGFYRSVVARTVFSNDTYSFDPLTDIVPNHVPAQGDRGKPLSAYAFAVHWDGTPSTVAEATPERIATAKAKSFASDKPTSPWQLPTGVMYRKTAIRELEPYVHVAPEPQPRRHLDGTVGGIPATDFDVDDGDVLDITADQLAEAGEIV	−3.538	−2.135	−1.289	−4.940	−0.604
SSAP_28: SEQ ID NO: 197 (protein) AITPNPIPAQDGSPIPSPDDIVGELARRKIYAGIPDDDVALALALCQKYGFDPLLKHLVLLATKDRDETTGQGQKHYNAYVTRDGLLHVAHTSGMLDGLETIQGKDDLGEWAEAVVYRKDMSRPFRYRVYLSEYVREAKGVWKTHPQAMLTKTAEVFALRRAFDVALTPFEEMGFDNQNIAGDTGPSPKTGFTEKAGFTGNTDFSAEASLPGKARFSTEAGLTDMTVIPPNRVTGSIPETSRLNTSAGSTGRQRRQLF	−2.227	0.503	0.506	−4.957	−0.886
SSAP_244: SEQ ID NO: 413; Nicoletella semolina (protein, listed as Nicoletella semolina) LKNADPQSVFNAACMAATLNLPIQNGLGFAYIVPYQNKKEKKTEAQFQLGYKGLIQLAQRSGQFKRLVAVPVYEKQLIAEDPINGFEFDWKQKPENGEKPIGYYAYFKLLNDFTAELYMTTHEVDEHAQRYSQTYRTYLDKKSKGQWASSVWADNFEAMALKTVMKLLLSKQAPLSVEMQQAVLADQAVVKNVETNEFSYVDNQIEEAEYTELKVSTDIFEKCKQSILNKETTLQELCDSGYEFSQEQYAELEKLEVE	−6.718	−8.469		−4.966	−0.819
SSAP_140: SEQ ID NO: 309; Staphylococcus equorum (protein, listed as Staphylococcus equorum) ATNETLKQKVVERKPNGVKEQSPKTQLNHLLKKMAPEIQRALPKHMDSDRMARIAMTAVSNTPKLLECDQMSFIAALMQASQLGVEPNTGLGQAYLIPYAGKVQFQLSYKGLIDLATRSGQYKSIYAHEVYTNDEFEYRYGLFKDLIHIPSQEPEGNPIGYYAVYHLKNGGYDFVYWTRERVDKHAKEFSQAVQKGWTSPWITNYDAMAKKTVLKEVLKYAPKSIEMNKAVENDSTIKEEIDKDMSTVIDVTDYSEVEEQESLETGGQTSK	−3.187	−1.374	−0.848	−5.000	−0.780
SSAP_251: SEQ ID NO: 420; Hathewaya proteolytica (protein, listed as Hathewaya proteolytica) ADSKKELILKESYSVLDRLIETKISAMPKDFNRTRFLQNCMTVLQDTKDIEKCQPISVARTLLKGAFLGLDFFQKECYAIPYGGTLQFQTDYKGETKMAKKYSIRPIKDIYAKVVREDDLFEEEIKEGQQFVNFKPIPFSDKPIIGAFAVVLYQDGGMEYETMSKTQIEGIRDNFSKMKNGLMWTKTPEEAYKKTVLRRLTKKIEKDFDTIEQAKTYEETSDSEFKKEEKCNEKSVFDVEYSEVESEELEQQTMLENSPFGGEQ	−3.012	−0.983	−1.345	−5.041	−0.760
SSAP_247: SEQ ID NO: 416; Ruminococcus sp. CAG: 579 (protein, listed as Ruminococcus sp.) NERTNLQYAPAPVERFKECLNSHEIKARLKNSLKNNWTQFQTSMLDLYSGDAYLQKCDPMAVALECVKAATLDLPISKSLGFAYVVPYNNVPTFTLGYKGLIQLAQRTGQYRTINADVVYEGEIRGADKLSGMVDLSGERTGDEVVGYFAYFKLINGFEKMIYMTRAEAEKWRDDYSPSAKSKYSPWRTDFDKMALKTCIRRLISKYGIMSVEMQGVMTEEAEPRAAAAAKRAEETVQANANSKVIDIDAAPPAANESPAEAAPQPDF	−1.027	−2.602	−3.388	0.549	0.332
